Target: calf thymus RNA Polymerase II (12-subunit enzyme, Form II; core of Form I) (bovine (calf thymus))
Test: quantification of seven Coomassie stained SDS-PAGE gel bands of purified or reconstituted FI RNAPII

average molar ratio of Gdown1 to Rpb5 in FI RNAPII: 1 molar ratio
Substance: native calf thymus Gdown1 (41 kD polypeptide of Form I RNAPII) (from UniProt Q17QE3 1-370)

— patent publication US20070225241A1
